Laboratory results from the nanobody polyreactivity screen of Harvey et al. (2022).

Experiment: yeast display, Sf9 membrane polyspecificity reagent, FACS + sequencing; frameworks hold sequencing errors
Method in brief: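 Nanobodies from a synthetic yeast display library (Saccharomyces cerevisiae BJ5465), induced 36–48 hours with galactose, were stained 1 hour at 4 °C with 10% biotinylated, detergent-solubilized Sf9 membrane reagent, enriched on streptavidin microbeads, then FACS-sorted. Anti-HA (expression) and streptavidin (reagent binding) fluorescence set low and high (top ~1%) gates. Polyreactivity labels come from the gate of origin. Genes were colony-PCR amplified, MiSeq 2 × 250 sequenced and filtered by CDR length.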

Sequence	polyreactivity (PSR sort gate)
QVQLVESGGGLVQAGGSLRLSCAASGFIFSKYAMGWYRQAPGKERELVAAITSGGSTYYADSVKGRFTISRDNAKNTVYLQMNSLKPEDTAVYYCAADSYVPNLNYDYWGQGTQVNVSS	low polyreactivity
QVQLVESGGGLVQAGGSLRLSCAASGFIFSKYAMGWYRQAPGKERELVASISTSGGSTYYADSVKGRFTISRDNAKNTVYLQMNSLKPEDTAVYYCAVASRSHGYKRAYYYWGQGTQVTVSS	high polyreactivity
QVQLVESGGGLVQAGGSLRLSCAASGFIFSLYAMGWYRQAPGKERELVAAISKRGGSTNYADSVKGRFTISRDNAKNTVYLQMNSLKPEDTAVYYCAKARPGFLYDHWGQGTQVTVSS	high polyreactivity
QVQLVESGGGLVQAGGSLRLSCAASGFIFSLYAMGWYRQAPGKERELVGAITRSGGSTYYADSVKGRFTISRDNAKNTVYLQMNSLKAEDTAVYYCAVSACYHYNYWGQGTQVTVSS	high polyreactivity
QVQLVESGGGLVQAGGSLRLSCAASGFIFSNAMGWYRQAPGKERELVAAISRSGGSTYYADSVKGRFTISRDNAKNTVYLQMNSLKPEDTAVYYCGARSYPRSPVRYDYWGQGTQVTVSS	high polyreactivity
QVQLVESGGGLVQAGGSLRLSCAASGFIFSNNAMGWYRQAPGKERELVAVINGGGSTYYADSVKGRFTISRDNAKNTVYLQMNSLKPEDTAFYYCARKSWPKERRVDPGYDYWGQGTQVTVSS	low polyreactivity
QVQLVESGGGLVQAGGSLRLSCAASGFIFSPYDMGWYRQAPGKERELVAAISWRTGSTYYADSVKGRFTISRDNAKNTVYLQMNSLKPEDTAVYYCAARFIWSSYGRYDYWGQGTQVTVSS	high polyreactivity
QVQLVESGGGLVQAGGSLRLSCAASGFIFSQYTMGWYRQAPGKERELVAAISFSDSSTFYADSVKGRFTISRDNAKNTVYLQMNSLKPEDTAVYYCAAEWGYRQRYFYATGGYWGQGTQVTVSS	low polyreactivity
QVQLVESGGGLVQAGGSLRLSCAASGFIFSRNAMGWYRQAPGKERELVARISRSGGRTYYADSVKGRFTISRDNAKNTVYLLMNSLKPEDTAVYYCATDHVRQSPYDYWGQGTQVTVSS	high polyreactivity
QVQLVESGGGLVQAGGSLRLSCAASGFIFSRYAMGWYRQAPGKEREFVAANSWSGGRTYYADSVKGRFTISRDNAKNTVYLQMNSLKPEDTAVYFCAARGYYPARHGTGGYWGQGTQVTVSS	high polyreactivity
QVQLVESGGGLVQAGGSLRLSCAASGFIFSRYGMGWYRQAPGKERELVAAISRSGGSTYYADSVKGRFTISRDNAKNTVYLQMNSLKPEDTAVYYCATAYSWRNADWFAYSYDYWGQGTQVTVSS	low polyreactivity
QVQLVESGGGLVQAGGSLRLSCAASGFIFSRYVMGWYRQAPGKERELVAAISRGGSTYYADSVKGRFTISRDNAKNTVYLQMNSLKPEDTAVYYCAVRSTRFLIYYPPYDYWGQGTQVTVSS	high polyreactivity
QVQLVESGGGLVQAGGSLRLSCAASGFIFSSNAMGGYRQAPGTERELVATIDRDGGITYADSVKGRFTISRDNAKTTVYIQMNSLKPEDTEVYYCAADPSSYGRFTYDYWGQGTQVTVSS	low polyreactivity
QVQLVESGGGLVQAGGSLRLSCAASGFIFSSYAKGWYRQAPGKERELVAVITRSGRRTYYADSVKGRFTISRDNAKNTFYLQMNSLKPEDTAVYYCNATLPNEVAPNDYWGQGTQVTVSS	high polyreactivity
QVQLVESGGGLVQAGGSLRLSCAASGFIFSSYAKGWYRQAPGKETELVAAITSGGSTNYADSVKGRFTISRDNAKNTVYLQMNSLYPEDTAVYYCATVPGGSWFFHWWSTGGDDEYWGQGTQVTVSS	low polyreactivity
QVQLVESGGGLVQAGGSLRLSCAASGFIFSSYAMGWYRQAPGKERELVAAISRSGGRTNYADSVKGRFTISRDNAKNTVYLQMNSLKPDDTAVYYCNARGRGKYPPYGYDYWGQGTQVTVSS	high polyreactivity
QVQLVESGGGLVQAGGSLRLSCAASGFIFSSYAMGWYRQAPGKERELVAAITSGGSTNYADSVKGRFTISRDNAKNTVYLQMNSLKPEDTAVYYCATVPGRSWFFHWWSTGGDDEYWGQGTQVTVSS	low polyreactivity
QVQLVESGGGLVQAGGSLRLSCAASGFIFSTNAMGWYRQAPGKERELVAAISRRGGNTYYADSVKGRFTISRDNAKNTVYLQMNSLKPEDTAVDYCNAVFRSGGLDYWGQGTQVTVSS	high polyreactivity
QVQLVESGGGLVQAGGSLRLSCAASGFIFSTNAMGWYRQAPGKERELVAAISRRGGNTYYADSVKGRFTISRDNAKNTVYLQMNSLKPEDTAVYYCNAVFRSGGLDYWGQGTQVTVSS	high polyreactivity
QVQLVESGGGLVQAGGSLRLSCAASGFIFSTYVMGWYRQAPGKERELVAAISASGGRTYYADSVKGRFTISRDTAKNTVYLQMNSLKPEDTAVFYCAAEITDTYRWALNYWGQGTQVTVSS	high polyreactivity
QVQLVESGGGLVQAGGSLRLSCAASGFIFSWNAMGWYRQAPGKERELVAAITNRGGSTYYADSVKGRFTISRDNAKNTVYLQMNSLKPEDTAVYYCAKRSSRWGRTPYDYWGQGTQVTVSS	high polyreactivity
QVQLVESGGGLVQAGGSLRLSCAASGFIFSYLYAMGWYRQAPGKERELVAAITYNGGSTYYADSVKGRFTISRDIAKNTVYLQMNSLKPEDTAVYYCAARKRYRANSYWEMAYWGQGTQVTVSS	high polyreactivity
